From the Human Domainome abundance scans (Beltran et al. 2025) come the findings set out here.

± gives the uncertainty stated by the source.

The nature of the series: abundance fitness (aPCA) (normalised: wild type 0, dead -1); higher = more abundant; growth selection in yeast, the domain comes from the species named. To be noted: Homo sapiens.
As for “Heterogeneous nuclear ribonucleoprotein U-like protein 2 A30M, Q1KMD3”, the abundance fitness was 0.067 ± 0.084.
“Heterogeneous nuclear ribonucleoprotein U-like protein 2 A39E, Q1KMD3” yielded an abundance fitness of -0.015 ± 0.064.
Take “Heterogeneous nuclear ribonucleoprotein U-like protein 2 D21S, Q1KMD3”: the abundance fitness is -0.165 ± 0.066.
Next, “Heterogeneous nuclear ribonucleoprotein U-like protein 2 E35A, Q1KMD3”: 0.036 ± 0.052; “Heterogeneous nuclear ribonucleoprotein U-like protein 2 Q16K, Q1KMD3”: 0.049 ± 0.092; “Heterogeneous nuclear ribonucleoprotein U-like protein 2 Q31D, Q1KMD3”: -0.194 ± 0.11.
To “Heterogeneous nuclear ribonucleoprotein U-like protein 2 S13D, Q1KMD3” belongs 0.114 ± 0.067.
“Heterogeneous nuclear ribonucleoprotein U-like protein 2 S22D, Q1KMD3” returned an abundance fitness of 0.187 ± 0.09.
Next, “Heterogeneous nuclear ribonucleoprotein U-like protein 2 V27A, Q1KMD3”: 0.131 ± 0.053; “NEDD4-like E3 ubiquitin-protein ligase WWP2 A445C, O00308”: 0.056 ± 0.03.
Next, “NEDD4-like E3 ubiquitin-protein ligase WWP2 A445D, O00308”: 0.121 ± 0.078; “NEDD4-like E3 ubiquitin-protein ligase WWP2 A445E, O00308”: 0.025 ± 0.05; “NEDD4-like E3 ubiquitin-protein ligase WWP2 A445F, O00308”: 0.007 ± 0.035.
To “NEDD4-like E3 ubiquitin-protein ligase WWP2 A445H, O00308” belongs 0.069 ± 0.081; to “NEDD4-like E3 ubiquitin-protein ligase WWP2 A445I, O00308”, -0.016 ± 0.049.
“NEDD4-like E3 ubiquitin-protein ligase WWP2 A445K, O00308” gave an abundance fitness of -0.01 ± 0.074.
Substance “NEDD4-like E3 ubiquitin-protein ligase WWP2 A445L, O00308” gave an abundance fitness of 0 ± 0.039.
Next, “NEDD4-like E3 ubiquitin-protein ligase WWP2 A445M, O00308”: -0.073 ± 0.052.
To “NEDD4-like E3 ubiquitin-protein ligase WWP2 A445N, O00308” belongs 0.103 ± 0.073.
Next, “NEDD4-like E3 ubiquitin-protein ligase WWP2 A445P, O00308”: -0.14 ± 0.07; “NEDD4-like E3 ubiquitin-protein ligase WWP2 A445Q, O00308”: 0.031 ± 0.049.
“NEDD4-like E3 ubiquitin-protein ligase WWP2 A445R, O00308” had an abundance fitness of 0.077 ± 0.039.
To “NEDD4-like E3 ubiquitin-protein ligase WWP2 A445S, O00308” belongs 0.04 ± 0.048; to “NEDD4-like E3 ubiquitin-protein ligase WWP2 A445T, O00308”, -0.211 ± 0.073; to “NEDD4-like E3 ubiquitin-protein ligase WWP2 A445V, O00308”, -0.001 ± 0.06.
To “NEDD4-like E3 ubiquitin-protein ligase WWP2 A445W, O00308” belongs -0.074 ± 0.062; to “NEDD4-like E3 ubiquitin-protein ligase WWP2 A445Y, O00308”, -0.002 ± 0.048.
“NEDD4-like E3 ubiquitin-protein ligase WWP2 A490C, O00308” displayed an abundance fitness of -0.01 ± 0.051.
To “NEDD4-like E3 ubiquitin-protein ligase WWP2 A490D, O00308” belongs 0.001 ± 0.061; to “NEDD4-like E3 ubiquitin-protein ligase WWP2 A490E, O00308”, 0.024 ± 0.062.
Consider “NEDD4-like E3 ubiquitin-protein ligase WWP2 A490F, O00308”, for which the abundance fitness is -0.081 ± 0.051.
“NEDD4-like E3 ubiquitin-protein ligase WWP2 A490G, O00308” yielded an abundance fitness of -0.007 ± 0.039.
Next, “NEDD4-like E3 ubiquitin-protein ligase WWP2 A490H, O00308”: -0.316 ± 0.078.
For the substance “NEDD4-like E3 ubiquitin-protein ligase WWP2 A490I, O00308”, the abundance fitness is 0.089 ± 0.077.
Take “NEDD4-like E3 ubiquitin-protein ligase WWP2 A490K, O00308”: the abundance fitness was found to be 0.007 ± 0.037.
“NEDD4-like E3 ubiquitin-protein ligase WWP2 A490L, O00308” displayed an abundance fitness of -0.047 ± 0.037.
Regarding “NEDD4-like E3 ubiquitin-protein ligase WWP2 A490M, O00308”, the abundance fitness amounted to 0.033 ± 0.053.
To “NEDD4-like E3 ubiquitin-protein ligase WWP2 A490N, O00308” belongs -0.195 ± 0.082; to “NEDD4-like E3 ubiquitin-protein ligase WWP2 A490P, O00308”, -0.128 ± 0.065; to “NEDD4-like E3 ubiquitin-protein ligase WWP2 A490Q, O00308”, 0.029 ± 0.069.
As for “NEDD4-like E3 ubiquitin-protein ligase WWP2 A490R, O00308”, the abundance fitness was -0.047 ± 0.035.
To “NEDD4-like E3 ubiquitin-protein ligase WWP2 A490S, O00308” belongs -0.013 ± 0.048; to “NEDD4-like E3 ubiquitin-protein ligase WWP2 A490V, O00308”, -0.05 ± 0.032; to “NEDD4-like E3 ubiquitin-protein ligase WWP2 A490W, O00308”, -0.185 ± 0.046.
Next, “NEDD4-like E3 ubiquitin-protein ligase WWP2 A490Y, O00308”: -0.09 ± 0.061; “NEDD4-like E3 ubiquitin-protein ligase WWP2 D464A, O00308”: -0.797 ± 0.036; “NEDD4-like E3 ubiquitin-protein ligase WWP2 D464C, O00308”: -0.438 ± 0.074.
“NEDD4-like E3 ubiquitin-protein ligase WWP2 D464E, O00308” had an abundance fitness of -0.372 ± 0.047.
Next, “NEDD4-like E3 ubiquitin-protein ligase WWP2 D464F, O00308”: -0.903 ± 0.12; “NEDD4-like E3 ubiquitin-protein ligase WWP2 D464I, O00308”: -1.28 ± 0.14.
To “NEDD4-like E3 ubiquitin-protein ligase WWP2 D464K, O00308” belongs -0.972 ± 0.11; to “NEDD4-like E3 ubiquitin-protein ligase WWP2 D464N, O00308”, -0.138 ± 0.073.
Next, “NEDD4-like E3 ubiquitin-protein ligase WWP2 D464P, O00308”: -0.921 ± 0.15; “NEDD4-like E3 ubiquitin-protein ligase WWP2 D464Q, O00308”: -0.508 ± 0.075.
Consider “NEDD4-like E3 ubiquitin-protein ligase WWP2 D464R, O00308”, for which the abundance fitness is -0.94 ± 0.041.
To “NEDD4-like E3 ubiquitin-protein ligase WWP2 D464S, O00308” belongs -0.565 ± 0.056; to “NEDD4-like E3 ubiquitin-protein ligase WWP2 D464V, O00308”, -1.03 ± 0.061.
“NEDD4-like E3 ubiquitin-protein ligase WWP2 D464W, O00308” yielded an abundance fitness of -1.21 ± 0.14.
To “NEDD4-like E3 ubiquitin-protein ligase WWP2 D464Y, O00308” belongs -0.693 ± 0.12.
Next, “NEDD4-like E3 ubiquitin-protein ligase WWP2 D474A, O00308”: -0.168 ± 0.037; “NEDD4-like E3 ubiquitin-protein ligase WWP2 D474C, O00308”: -0.288 ± 0.057; “NEDD4-like E3 ubiquitin-protein ligase WWP2 D474E, O00308”: -0.192 ± 0.074.
In turn, “NEDD4-like E3 ubiquitin-protein ligase WWP2 D474F, O00308” had an abundance fitness of -0.376 ± 0.086.
“NEDD4-like E3 ubiquitin-protein ligase WWP2 D474H, O00308”: the abundance fitness was -0.095 ± 0.097.
Next, “NEDD4-like E3 ubiquitin-protein ligase WWP2 D474I, O00308”: -0.069 ± 0.092; “NEDD4-like E3 ubiquitin-protein ligase WWP2 D474K, O00308”: -0.505 ± 0.14.
To “NEDD4-like E3 ubiquitin-protein ligase WWP2 D474L, O00308” belongs -0.326 ± 0.061; to “NEDD4-like E3 ubiquitin-protein ligase WWP2 D474M, O00308”, -0.224 ± 0.063; to “NEDD4-like E3 ubiquitin-protein ligase WWP2 D474N, O00308”, -0.332 ± 0.065.
For the substance “NEDD4-like E3 ubiquitin-protein ligase WWP2 D474P, O00308”, the abundance fitness was -0.332 ± 0.085.
For the substance “NEDD4-like E3 ubiquitin-protein ligase WWP2 D474Q, O00308”, the abundance fitness was -0.279 ± 0.073.
“NEDD4-like E3 ubiquitin-protein ligase WWP2 D474R, O00308”: the abundance fitness is -0.19 ± 0.039.
For the substance “NEDD4-like E3 ubiquitin-protein ligase WWP2 D474S, O00308”, the abundance fitness was -0.406 ± 0.061.
Next, “NEDD4-like E3 ubiquitin-protein ligase WWP2 D474T, O00308”: -0.442 ± 0.079; “NEDD4-like E3 ubiquitin-protein ligase WWP2 D474V, O00308”: -0.387 ± 0.067.
Next, “NEDD4-like E3 ubiquitin-protein ligase WWP2 D474W, O00308”: -0.253 ± 0.048.
For the substance “NEDD4-like E3 ubiquitin-protein ligase WWP2 D474Y, O00308”, the abundance fitness was -0.251 ± 0.097.
In turn, “NEDD4-like E3 ubiquitin-protein ligase WWP2 D492A, O00308” had an abundance fitness of -0.174 ± 0.054.
